According to IntAct's records for PubMed 16628219:

B1: Ras GTPase-activating-like protein IQGAP1 (Mus musculus), Q9JKF1 (parent)
chain: MSAAEEVDGLGVVRPHYGSVLDNERLTAEEMDERRRQNVAYEYLCHLEEAKRWMEACLGEDLPPTTELEEGLRNGVYLAKLGNFFSPKVVSLKKIYDREQTRYKATGLHFRHTDNVIQWLNAMDEIGLPKIFYPETTDIYDRKNMPRCIYCIHALSLYLFKLGLAPQIQDLYGKVDFTEEEINNMKIELEKYGIQMPAFSKIGGILANELSVDEAALHAAVIAINEAIDRRVAADTFTALKNPNAMLVNLEEGLAPTYQDVLYQAKQDKMTNAKNRTENSDRERDVYEELLTQAEIQGNVNKVNTSSALANISLALEQGCAVTLLKALQSLALGLRGLQTQNSDWYMKQLQSDLQQKRQSGQTDPLQKEEVQAGVDAANSAAQQYQRRLAAVAAINAAIQKGIAEKTVLELMNPEAQLPQVYPFAADLYQKELATLQQQSPEHSLTHPELTVAVEMLSSVALINRALESGDMTTVWKQLSSSVTGLTNIEEENCQRYLDELMKLKAQAHAENNAFITWNDIQACVDHVNLVVHEEHERILAIGLINEALDEGDAQKTLQALQIPAAKLEGVLAEVAQHYQDTLIRAKREKAQETQDESAVLWLDEIQGGIWQSNKDTQEAQRFALGISAINEAVDSGDVGRTLSALRSPDVGLYGVIPECGETYQSDLAEAKKKRLAAGDNNSKWVKHWVKGGYHYYHNLETQAGGWAEPPDFVQNSVQLSREEIQSSISGVTAAYNREQLWLANEGLITKLQACCRGYLVRQEFRSRMNFLKKQIPAITCIQSQWRGYKQKKAYQDRLAYLHSHKDEVVKIQSLARMHQARKRYRDRLQYFRDHINDIIKIQAFIRANKARDDYKTLINAEDPPMIVVRKFVHLLDQSDQDFQEELDLMKMREEVITLIRSNQQLENDLNLMDIKIGLLVKNKITLQDVVSHSKKLTKKNKEQLSDMMMINKQKGGLKALSKEKREKLEAYQHLFYLLQTNPTYLAKLIFQMPQNKSTKFMDSVIFTLYNYASNQREEYLLLRLFQTALQEEIKSKVDQIQEIVTGNPTVIKMVVSFNRGARGQNALRQILAPVVKEIMDDKSLNIKTDPVDIYKSWVNQMESQTGEASKLPYDVTPEQALSHEEVKTRLDNSIRNMRAVTDKFLSAIVSSVDKIPYGMRFIAKVLKDSLHEKFPDAGEDELLKIIGNLLYYRYMNPAIVAPDAFDIIDLSAGGQLTTDQRRNLGSIAKMLQHAASNKMFLGDNAHLSIINEYLSQSYQKFRRFFQVACDVPELQDKFNVDEYSDLVTLTKPVIYISIGEIINTHTLLLDHQDAIAPEHNDPIHELLDDLGEVPTIESLIGESCGNSNDPNKEALAKTEVSLTLTNKFDVPGDENAEMDARTILLNTKRLIVDVIRFQPGETLTEILETPATNEQEAEHQRAMQRRAIRDAKTPDKMKKSKPMKEDNNLSLQEKKEKIQTGLKKLTELGTVDPKNRYQELINDIAKDIRNQRRYRQRRKAELVKLQQTYSALNSKATFYGEQVDYYKSYIKTCLDNLASKGKVSKKPREMKGKKSKKISLKYTAARLHEKGVLLEIEDLQANQFKNVIFEIGPTEEVGDFEVKAKFMGVQMETFMLHYQDLLQLQYEGVAVMKLFDRAKVNVNLLIFLLNKKFYGK
B2: Gag polyprotein (Moloney murine leukemia virus (isolate Shinnick) (MoMLV)), P03332 (parent)
chain: MGQTVTTPLSLTLGHWKDVERIAHNQSVDVKKRRWVTFCSAEWPTFNVGWPRDGTFNRDLITQVKIKVFSPGPHGHPDQVPYIVTWEALAFDPPPWVKPFVHPKPPPPLPPSAPSLPLEPPRSTPPRSSLYPALTPSLGAKPKPQVLSDSGGPLIDLLTEDPPPYRDPRPPPSDRDGNGGEATPAGEAPDPSPMASRLRGRREPPVADSTTSQAFPLRAGGNGQLQYWPFSSSDLYNWKNNNPSFSEDPGKLTALIESVLITHQPTWDDCQQLLGTLLTGEEKQRVLLEARKAVRGDDGRPTQLPNEVDAAFPLERPDWDYTTQAGRNHLVHYRQLLLAGLQNAGRSPTNLAKVKGITQGPNESPSAFLERLKEAYRRYTPYDPEDPGQETNVSMSFIWQSAPDIGRKLERLEDLKNKTLGDLVREAEKIFNKRETPEEREERIRRETEEKEERRRTEDEQKEKERDRRRHREMSKLLATVVSGQKQDRQGGERRRSQLDRDQCAYCKEKGHWAKDCPKKPRGPRGPRPQTSLLTLDD
B3: Gag polyprotein (Moloney murine leukemia virus (isolate Shinnick) (MoMLV)), P03332 (parent)
chain: B2 chain
partner: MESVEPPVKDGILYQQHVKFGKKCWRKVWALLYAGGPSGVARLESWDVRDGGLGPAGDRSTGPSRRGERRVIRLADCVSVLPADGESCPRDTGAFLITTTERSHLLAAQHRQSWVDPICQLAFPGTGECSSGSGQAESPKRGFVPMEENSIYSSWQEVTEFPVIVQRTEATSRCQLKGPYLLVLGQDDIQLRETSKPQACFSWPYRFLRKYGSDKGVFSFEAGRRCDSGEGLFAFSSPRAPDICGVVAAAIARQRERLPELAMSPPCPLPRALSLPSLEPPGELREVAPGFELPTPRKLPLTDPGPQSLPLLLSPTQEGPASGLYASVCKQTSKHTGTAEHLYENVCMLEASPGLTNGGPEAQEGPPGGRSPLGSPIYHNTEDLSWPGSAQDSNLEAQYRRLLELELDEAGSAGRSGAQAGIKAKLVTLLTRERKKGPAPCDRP

Variants of: B1
Conditions: with gag_mlvms gag

| Variant | effect of a mutation on the interaction |
| --- | --- |
| N1514A;S1515A;K1516A | disrupting interaction |

Variants of: B2
Conditions: with iqga1_mouse Iqgap1, Q9JKF1

| Variant | effect of a mutation on the interaction |
| --- | --- |
| L60A;I61A;T62A | disrupting interaction |

Variants of: B2
Conditions: with iqga1_mouse Iqgap1, Q9JKF1
Remark: another data set of the same source

| Variant | effect of a mutation on the interaction |
| --- | --- |
| Q63A;V64A;K65A | disrupting interaction |

Variants of: B3
Conditions: with dok3_mouse Dok3, Q9QZK7

| Variant | effect of a mutation on the interaction |
| --- | --- |
| F69A;S70A;P71A | disrupting interaction |

Variants of: B3
Conditions: with dok3_mouse Dok3, Q9QZK7
Remark: another data set of the same source

| Variant | effect of a mutation on the interaction |
| --- | --- |
| L89A;F91A;D92A | disrupting interaction |

Variants of: B3
Conditions: with dok3_mouse Dok3, Q9QZK7
Remark: another data set of the same source

| Variant | effect of a mutation on the interaction |
| --- | --- |
| G72A;P73A;H74A | disrupting interaction |
